Results taken from PMC5440690, “Sirt1 carboxyl-domain is an ATP-repressible domain that is transferrable to other proteins” (Nature Communications, 2017).

Substrate: NC(=O)c1ccc[n+]([C@@H]2O[C@H](COP(=O)([O-])OP(=O)(O)OC[C@H]3O[C@@H](n4cnc5c(N)ncnc54)[C@H](O)[C@@H]3O)[C@@H](O)[C@H]2O)c1
Experiment: steady-state deacetylation kinetics (Km)
Assay type: biochemical, Mus musculus

B1: Sirt1 (Mus musculus) (protein)
chain: ADEVALALQAAGSPSAAAAMEAASQPADEPLRKRPRRDGPGLGRSPGEPSAAVAPAAAGCEAASAAAPAALWREAAGAAASAEREAPATAVAGDGDNGSGLRREPRAADDFDDDEGEEEDEAAAAAAAAAIGYRDNLLLTDGLLTNGFHSCESDDDDRTSHASSSDWTPRPRIGPYTFVQQHLMIGTDPRTILKDLLPETIPPPELDDMTLWQIVINILSEPPKRKKRKDINTIEDAVKLLQECKKIIVLTGAGVSVSCGIPDFRSRDGIYARLAVDFPDLPDPQAMFDIEYFRKDPRPFFKFAKEIYPGQFQPSLCHKFIALSDKEGKLLRNYTQNIDTLEQVAGIQRILQCHGSFATASCLICKYKVDCEAVRGDIFNQVVPRCPRCPADEPLAIMKPEIVFFGENLPEQFHRAMKYDKDEVDLLIVIGSSLKVRPVALIPSSIPHEVPQILINREPLPHLHFDVELLGDCDVIINELCHRLGGEYAKLCCNPVKLSEITEKPPRPQKELVHLSELPPTPLHISEDSSSPERTVPQDSSVIATLVDQATNNNVNDLEVSESSCVEEKPQEVQTSRNVENINVENPDFKAVGSSTADKNERTSVAETVRKCWPNRLAKEQISKRLEGNQYLFVPPNRYIFHGAEVYSDSEDDVLSSSSCGSNSDSGTCQSPSLEEPLEDESEIEEFYNGLEDDTERPECAGGSGFGADGGDQEVVNEAIATRQELTDVNYPSDKS
notes: recombinant WT Sirt1
With B1 the Km was 203.08 ± 13.24 µM.
